Experimental data reported in paper doi:10.1101/2025.02.17.637997, “Phosphorylation-State Modulated Binding of HSP70: Structural Insights and Compensatory Protein Engineering” (bioRxiv, 2025).
Several values for one entry are separate records, joined by “and”; a condition that tells them apart may be missing. Identical values can stand only once. Ends that are not written are not given here. * marks the point of attachment. FITC = O=C1OC2(c3ccc(O)cc3Oc3cc(O)ccc32)c2ccc(NC(=S)*)cc21; Ahx = NCCCCCC(=O)O

Assays:
[1] = biological target: T1, CHIP-TPR (21–154) (UniProt Q9UNE7 21-154); assay: biolayer interferometry, peptide on sensor; conditions: reference: biotin-EEVD peptide; sites T636
T1 construct: also called extended TPR domain of CHIP
T1 sequence (looked up): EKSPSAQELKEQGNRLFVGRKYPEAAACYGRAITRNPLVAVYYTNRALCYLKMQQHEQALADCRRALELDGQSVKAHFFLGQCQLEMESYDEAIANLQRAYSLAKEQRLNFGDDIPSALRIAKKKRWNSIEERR

[2] = tested on: CHIP TPR-UBOX; assay: Fluorescence polarization, CHIP TPR-UBOX (CC deletion); format: binding; conditions: FP; Fig. 2C
From the text: (§1) A complete list of vectors is listed in Table S1 and deposited at Addgene (pending ID). Plasmids were maintained and propagated in DH5-alpha E. coli and purified using the Miniprep plasmid kit (Qiagen) or Quantum Prep® Plasmid Midiprep Kit (Bio-Rad). We used the Q5 Site-Directed Mutagenesis Kit (NEB) or […] II XL (NC9045762, Agilent Technologies) site-directed mutagenesis kit for editing plasmids and validated via DNA sequencing. Lifetein or Genscript synthesized the peptides used in the study. […] The amino-terminal biotin-labeled HSP70 tail peptide (biotin-[…], termed as biotin-EEVD) and the amino-terminal biotin-labeled pT-HSP70 tail peptide (biotin-GSGSGP(pT)IEEVD, termed as biotin-pEEVD) were purchased (Lifetein). The peptides used for fluorescent polarization were N-FITC-Ahx-[…] (EEVD) or N-FITC-Ahx-GSGP(pT)IEEVD (pEEVD). Recombinant CHIP-TPR constructs were recombinantly expressed using the pHis//2 CHIP-TPR (21–154) plasmid and purified as previously described ([21]) and additional CHIP proteins were purified as previously described ([22]).
(§2) The N-terminally-labelled peptides were loaded into PCR reaction tubes at 2X (40 nM), with the final concentration being 20 nM. Recombinant CHIP constructs were added into the tubes at the indicated concentrations. […] The polarization reads were normalized to the dilution buffer. […]

[3] = biological target: CHIP TPR-CC (Homo sapiens, UniProt Q9UNE7); assay: Fluorescence polarization, CHIP TPR-CC fragment; format: binding; conditions: FP; Fig. 2C
From the text: as §1, §2

[4] = tested on: SmBiT-CHIP-WT; assay: NanoBiT live-cell interaction, HEK-293, SmBiT-CHIP-WT; format: cell-based; conditions: HEK-293, CHIP-WT, luminescence over 20 min, three independent transfections, Fig. 1E
Description: (§3) HEK293 and COS-7 cells were acquired from the UNC Lineberger Comprehensive Cancer Center Tissue Culture Facility. Cultures were maintained in Dulbecco’s Modified Eagle Medium with 10% fetal bovine serum at 37 °C and 5% CO2. Using the manufacturers’ instructions, X-tremeGENE 9 was used to transfect cells with plasmid DNA except for NanoBiT constructs, in which case we used Lipofectamine 3000 (Thermo Fisher Scientific). Where indicated, twenty-four hours post-transfection, cells were treated with 20 μM MG-132 (Selleck Chemicals) for 6 h or 100 μM cycloheximide (Sigma-Aldrich) for the stated duration.
(§4) NanoBiT Protein: Protein Interaction System (Promega) was used to measure protein-protein interaction data following the manufacturer’s instructions. As previously described, LgBiT-HSP70 and SmBiT-CHIP construct interactions were used as positive controls ([22]). Twenty-four hours post-transfection, the cells were collected, replated in 96-well clear bottom white-sided tissue culture plates, and maintained at 37 °C and 5% CO2 for 45 min. Nano-Glo Live Cell Reagent (Promega) was added, and luminescence was measured using a CLARIOstar microplate reader over 20 minutes. The total area under the maximum luminescence curve was quantified and used to compare changes in HSP70-CHIP interactions relative to the WT-WT conditions.

[5] = tested on: SmBiT-CHIP-G132N; assay: NanoBiT live-cell interaction, HEK-293, SmBiT-CHIP-G132N; format: cell-based; conditions: HEK-293, CHIP-G132N, three independent transfections, p = 0.2114 vs. Δ with CHIP-WT, Fig. 1E
Description: as §3, §4

[6] = biological target: T2, CHIP-WT (Homo sapiens, UniProt Q9UNE7); assay: Co-immunoprecipitation of HSP70 with CHIP-WT, COS-7; format: cell-based; conditions: Co-IP of MYC-CHIP-WT, vs HSP70-WT and HSP70-T636A, densitometry, Fig. 1I
T2 construct: His; made in house
T2 sequence (Q9UNE7 1-303): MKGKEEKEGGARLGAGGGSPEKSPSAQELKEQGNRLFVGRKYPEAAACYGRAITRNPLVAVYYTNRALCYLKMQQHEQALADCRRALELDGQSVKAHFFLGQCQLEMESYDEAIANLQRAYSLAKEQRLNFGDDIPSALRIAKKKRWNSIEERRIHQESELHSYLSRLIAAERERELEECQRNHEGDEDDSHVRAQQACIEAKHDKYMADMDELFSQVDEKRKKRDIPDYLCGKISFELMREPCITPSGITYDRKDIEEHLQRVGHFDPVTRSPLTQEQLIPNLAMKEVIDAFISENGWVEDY
Description: (§5) Samples were collected in a lysis buffer composed of 50 mM Tris-HCl (pH 7.4), 150 mM NaCl, 2 mM EDTA, and 1% Triton X-100, supplemented with 1X Halt protease and phosphatase inhibitor (Thermo Scientific). The samples were then sonicated and combined with Laemmli sample buffer (Bio-Rad). The lysates were resolved on 4–15% TGX Stain-Free gels (Bio-Rad) and transferred to PVDF membranes (Bio-Rad). The membranes were blocked in 5% milk and incubated with primary antibodies (Table S3) overnight at 4°C. Following this, HRP-conjugated secondary antibodies (Cell Signaling Technology) were applied. Detection was performed using Lumigen ECL Ultra (Lumigen, tma-100), and the blots were imaged with the ChemiDoc Imaging System (BioRad).
(§6) Ezview™ Red Anti-c-Myc Affinity Gel Beads (Sigma-Aldrich) were used for co-immunoprecipitation of myc-tagged proteins. Proteins were eluted via boiling before western blot analysis.

[7] = tested on: SmBiT-CHIP-WT; assay: NanoBiT live-cell interaction, COS-7, SmBiT-CHIP-WT; format: cell-based; conditions: COS-7, CHIP-WT, three independent transfections, Fig. 1F
Description: as §3, §4

[8] = tested on: HEK-293 cells; conditions: HEK-293, electrical impedance; ref [16]; cited from earlier work
[9] = tested on: HSP70 steady-state levels in COS-7 cells; assay: Cycloheximide chase of HSP70 steady-state levels, COS-7; format: cell-based
Description: as §3, §5

[10] = tested on: SmBiT-CHIP-G132N; assay: NanoBiT live-cell interaction, COS-7, SmBiT-CHIP-G132N; format: cell-based; conditions: COS-7, CHIP-G132N, three independent transfections, Fig. 1F
Description: as §3, §4

[11] = tested on: HSP70 steady-state levels in HEK-293 cells; assay: Cycloheximide chase of HSP70 steady-state levels, HEK-293; format: cell-based; conditions: Flag immunoblot, representative, Fig. S1
Description: as §3, §5

[12] = biological target: CHIP (UniProt Q9UNE7); assay: fluorescence polarization titration; conditions: reference: unphosphorylated EEVD peptide; sites T636
[13] = biological target: T3, recombinant full-length CHIP-G132N (UniProt Q9UNE7 1-303, G132N); assay: fluorescence polarisation; 20 nM N-terminally FITC-labelled peptide, recombinant CHIP constructs at increasing concentrations, 30 minutes at room temperature; one site/total binding fit with Bmax constrained to 100; conditions: both partners purified
T3 construct: CHIP, full-length recombinant protein with G132N
T3 sequence (looked up): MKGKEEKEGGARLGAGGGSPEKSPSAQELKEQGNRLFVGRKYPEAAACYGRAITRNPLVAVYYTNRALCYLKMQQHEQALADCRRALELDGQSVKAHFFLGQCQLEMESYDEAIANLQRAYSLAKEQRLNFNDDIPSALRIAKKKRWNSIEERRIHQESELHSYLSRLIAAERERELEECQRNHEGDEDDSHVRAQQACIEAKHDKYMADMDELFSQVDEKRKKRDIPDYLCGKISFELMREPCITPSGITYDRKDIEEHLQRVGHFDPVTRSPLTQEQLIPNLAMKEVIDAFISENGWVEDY

[14] = biological target: T1, CHIP-TPR (21–154); assay: as above; conditions: both partners purified
[15] = biological target: T4, recombinant full-length CHIP-WT (UniProt Q9UNE7 1-303); assay: as above; conditions: both partners purified
T4 sequence (looked up): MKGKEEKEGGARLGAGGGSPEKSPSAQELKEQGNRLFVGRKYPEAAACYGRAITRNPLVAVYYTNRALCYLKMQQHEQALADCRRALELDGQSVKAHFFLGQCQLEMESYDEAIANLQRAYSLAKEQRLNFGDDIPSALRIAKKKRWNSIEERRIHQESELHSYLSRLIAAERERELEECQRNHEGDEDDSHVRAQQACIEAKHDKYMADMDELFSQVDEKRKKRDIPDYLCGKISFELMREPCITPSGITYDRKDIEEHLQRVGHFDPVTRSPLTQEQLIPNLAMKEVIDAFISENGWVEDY

[16] = biological target: recombinant full-length CHIP-K30A (UniProt Q9UNE7 1-303, K30A); assay: FP
[17] = biological target: recombinant full-length CHIP-G132N (UniProt Q9UNE7 1-303, G132N); assay: FP
[18] = biological target: T5, CHIP domain fragment: TPR with the coiled-coil domain; assay: FP
T5 chain: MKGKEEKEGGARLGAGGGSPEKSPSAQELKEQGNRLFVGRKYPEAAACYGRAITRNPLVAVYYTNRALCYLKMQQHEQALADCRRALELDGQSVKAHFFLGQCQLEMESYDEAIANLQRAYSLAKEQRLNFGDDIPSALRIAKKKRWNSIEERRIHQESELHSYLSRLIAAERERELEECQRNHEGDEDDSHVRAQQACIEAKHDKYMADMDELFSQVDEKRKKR

[19] = biological target: T6, recombinant full-length CHIP-WT (UniProt Q9UNE7 1-303); assay: FP
T6 chain: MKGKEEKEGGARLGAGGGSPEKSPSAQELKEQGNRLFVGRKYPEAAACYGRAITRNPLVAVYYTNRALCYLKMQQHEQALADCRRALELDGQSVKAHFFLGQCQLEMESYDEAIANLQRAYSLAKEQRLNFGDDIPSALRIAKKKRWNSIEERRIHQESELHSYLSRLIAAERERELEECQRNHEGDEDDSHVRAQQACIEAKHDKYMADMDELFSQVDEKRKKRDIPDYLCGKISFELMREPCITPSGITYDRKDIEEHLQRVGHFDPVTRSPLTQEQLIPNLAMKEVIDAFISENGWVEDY

[20] = tested on: LgBiT-HSP70 T636A/D; assay: NanoBiT live-cell interaction, COS-7, CHIP variants with LgBiT-HSP70; format: cell-based; conditions: Fig. 1F
Description: as §3, §4

[21] = tested on: HSP70; assay: Co-immunoprecipitation of CHIP variants with HSP70, COS-7; format: cell-based; conditions: Co-IP of MYC-CHIP, Fig. 1I
Description: as §5, §6

[22] = tested on: LgBiT-HSP70 T636A/D; assay: NanoBiT live-cell interaction, HEK-293, CHIP variants with LgBiT-HSP70; format: cell-based; conditions: compared with CHIP-WT, Fig. 1E
Description: as §3, §4

In the case of “HSP70 C-terminal tail (from UniProt P0DMV8) biotin-pEEVD (pT636) peptide”, the fold change [1] is reported as “weaker”.

For “N-FITC-Ahx-GSGPTIEEVD [unphosphorylated HSP70 tail peptide used for fluorescent polarization]”, the “EEVD tail peptide interaction with U-box moved closer to TPR” value [2] was “eliminated EEVD tail peptide interactions” and the “EEVD tail interaction, effect of the coiled-coil domain” value [3] was “minimal change”.

For “HSP70-T636D: phospho-mimetic version of HSP70”, the “decrease in luminescence compared to HSP70-T636A” value [4] was 42%, the “decrease in luminescence compared to HSP70-T636A” value [5] was 57% and the “reduction of HSP70 co-precipitated by CHIP-WT” value [6] was “over 90%”. The “Δ luminescence comparing HSP70-T636D to HSP70-T636A” value [7] was −85%, the “effect on cell growth / proliferation” value [8] was “no effect” and the “loss of HSP70 steady-state level after inhibiting translation” value ([9]; cycloheximide 100 μM, six hours, change from time 0, representative immunoblot, Fig. 1J) was 76%. For the same molecule, the “HSP70 steady-state level after cycloheximide” value ([9]; cycloheximide, six hours, compared to HSP70-WT and HSP70-T636A, Fig. 1J) was “more robust decreases”, the “HSP70 steady-state level with proteasome inhibitor” value ([9]; with MG-132, Fig. 1J) was “recovery of protein levels” and the “Δ luminescence comparing HSP70-T636D to HSP70-T636A” value [10] was −66%. The “percent change of HSP70 level from time 0” value ([11]; cycloheximide +MG132, 6 h (column from layout)) was “+98%” and the “percent change of HSP70 level from time 0” value ([11]; cycloheximide, 6 h, without MG132 (column from layout)) was -80%.

For “HSP70 C-terminal tail (from UniProt P0DMV8) pEEVD (pT636) peptide”, the fold change [12] was “weaker”.

B1: N-FITC-Ahx-GSGPTIEEVD (peptide)
peptide: {FITC-Ahx}-GSGPTIEEVD
notes: C-terminal tail of HSP70; tracer of the fluorescence polarisation assay; also called HSP70 peptide tracer; source: synthetic peptide (Lifetein or Genscript)
B1: binds [13]; binds [14]; binds [15]. The Kd [16] was 66 µM, the Kd [17] was 9.2 µM and the Kd [18] was 28 µM. For the same molecule, the Kd [19] was 6.5 µM and 7 µM.

B2: CHIP-K30A: substitution known to disrupt the ability of CHIP's TPR domain to bind EEVD motifs (protein)
chain: MKGKEEKEGGARLGAGGGSPEKSPSAQELAEQGNRLFVGRKYPEAAACYGRAITRNPLVAVYYTNRALCYLKMQQHEQALADCRRALELDGQSVKAHFFLGQCQLEMESYDEAIANLQRAYSLAKEQRLNFGDDIPSALRIAKKKRWNSIEERRIHQESELHSYLSRLIAAERERELEECQRNHEGDEDDSHVRAQQACIEAKHDKYMADMDELFSQVDEKRKKRDIPDYLCGKISFELMREPCITPSGITYDRKDIEEHLQRVGHFDPVTRSPLTQEQLIPNLAMKEVIDAFISENGWVEDY
For B2, the “luminescence of CHIP variant with HSP70 constructs” value [20] was “limited luminescence detected”, the “co-precipitation of HSP70 by CHIP variant” value [21] was “failed to precipitate appreciable amounts of HSP70 construct above background levels” and the “luminescence of CHIP variant with HSP70-T636A/D” value [22] was “robust decrease in luminescence”.
